Assay results taken from US20240385191A1 (NORDIC BIOSCIENCE A S, published 2024).
No end group written: not given here. *: point of attachment. Biotin = O=C1N[C@H]2[C@H](CS[C@H]2CCCCC(=O)*)N1; KLH = keyhole limpet hemocyanin

T1: non-sense KLH-conjugated peptide IRQCPDRTYG-GGC-KLH
T1 peptide: IRQCPDRTYGGGC(KLH)

T2: non-sense coater peptide Biotin-SHAHQRTGGN
T2 construct: Control coater on the streptavidin plate
T2 peptide: Biotin-SHAHQRTGGN

B1: monoclonal antibody targeting PRO-C20 (antibody produced by the best performing clone) (antibody, V domains shown)
VH: QIQLMQSGPELKKPGETVKISCKASGYPFTDYSMHWVKQAPGKGLKWMGWINTETGEPTYADGFKGRFAFSLETSASTAYLKINNLKNDDTATYFCARGPYWGQGTLVTVSA
VL: DVLLTQTPLSLPVSLGDQASISCRSSQSIVHNNGKIYLEWFLQKPGQSPKALIQKVSNRFSGVPDRFSGSGSGTDFTLKISRVEAEDLGVYYCFQGSHVPYTFGGGTKLEIKR
notes: Mouse hybridoma antibody (Balb/C mice), purified on protein G and HRP-labelled in the final ELISA; also called HRP-labelled monoclonal antibody; the monoclonal antibody

Columns and labels:
[1] = molecular target: B1; assay: competitive ELISA: standard peptide against coated Biotin-… for the HRP-labelled antibody
Experimental: After washing five times with washing buffer (25 mM Tris, 50 mM NaCl, pH 7.2), 20 μL/well of sample was added in duplicates followed by 100 μL/well of 50 ng/mL HRP-labelled monoclonal antibody in assay buffer and incubated for 1 hour at 20° C. with shaking at 300 RPM. After a second washing cycle, 100 μL/well of TMB was added and incubated for 15 minutes in darkness at 20° C. with shaking at 300 RPM. The reaction was stopped by adding 100 μL/well of 1% H₂SO₄. Absorbance was measured at 450 nm with 650 nm as reference. […]
Assay variation was tested by running ten independent run of the assay using ten quality control samples in double determinations. […] Intra-assay variation was calculated as the mean coefficient of variance (CV %) between the double determinations on each of the ten runs. Inter-assay variation was calculated as the overall CV % for all determinations on the ten runs. Lower-and upper-limit of the measurement range (LLMR and ULMR) were determined as the concentrations that denotes the limits of the linear range of the assay. Lower limit of detection was calculated as the mean interpolated concentration of 21 blank samples, only containing assay buffer, plus three standard deviations. Upper limit of detection was calculated as the mean interpolated concentration of standard peptide corresponding to the highest concentration of the standard curve minus three standard deviations.

[2] = molecular target: T1, non-sense KLH-conjugated peptide …; assay: preliminary competitive ELISA for clone selection
[3] = molecular target: T2, non-sense coater peptide …; assay: ELISA with the non-sense biotinylated peptide as coater on a streptavidin plate
Experimental: Several optimizations were made to the ELISA including the choice of assay buffer, incubation time and temperature as well as concentrations of antibody and peptides. […] After washing five times with washing buffer (25 mM Tris, 50 mM NaCl, pH 7.2), 20 μL/well of sample was added in duplicates followed by 100 μL/well of 50 ng/mL HRP-labelled monoclonal antibody in assay buffer and incubated for 1 hour at 20° C. with shaking at 300 RPM. After a second washing cycle, 100 μL/well of TMB was added and incubated for 15 minutes in darkness at 20° C. with shaking at 300 RPM. The reaction was stopped by adding 100 μL/well of 1% H₂SO₄. Absorbance was measured at 450 nm with 650 nm as reference. To generate a standard curve, 20 μL/well of 50 ng/ml standard peptide ([…] (SEQ ID NO: 6)), serially diluted two-fold, was added to appropriate wells and a four-parametric logistic regression model was used to fit a curve. […]
Antibody specificity was evaluated by the inhibition of signal by two-fold serial dilutions of the standard peptide ([…] (SEQ ID NO: 6)), elongated peptide ([…] (SEQ ID NO: 2)), truncated peptide ([…] (SEQ ID NO: 3)) as well as a non-sense standard peptide ([…] (SEQ ID NO: 8)) and a non-sense coater peptide (Biotin-[…] (SEQ ID NO: 9)).

IC50 [1] | binding result [2] | binding result [3] | Binder
5.59 ng/mL |  |  | RHLEGRGEPGAVGQMGSPGQQGASTQGLWE (Synthetic 30-mer corresponding to the C-terminus of type XX collagen; also called 30 amino-acid variant) [standard peptide RHLEGRGEPGAVGQMGSPGQQGASTQGLWE]
 | no binding | no binding | B1
